Data: patent US20060263855A1

Biological target: α-Hemoglobin (αHb) (UniProt P69905)
Test: cell-based or functional assay

Sequence of UniProt P69905 (P69905 2-142): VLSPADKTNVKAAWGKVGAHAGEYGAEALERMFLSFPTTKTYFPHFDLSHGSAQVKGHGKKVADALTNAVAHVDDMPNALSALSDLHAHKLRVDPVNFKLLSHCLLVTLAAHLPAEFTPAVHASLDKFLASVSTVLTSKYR

α-hemoglobin stabilizing protein (AHSP) (from UniProt Q9NZD4 1-102)
Acceleration of rate of αHb oxidation by AHSP (ratio of oxidation rate constants): 6.2
